Reference: the RNAGym collection of RNA variant scans (doi:10.7554/elife.90254)

B1: OR4K15 (parent)
chain: GUUAACGGUCAUAGGCCAUGGAAACUAGGAGCACCAUUUCGCUGCCAGUGAAGAAAUGAACAAAGAAAAUCUGGGCCAGGCAGGCAUCAAAAGAAAUAGUCUUGCGCUCAACCAGAAAGUCUGUAAUCAUUUUAAGGGUA

Variants of: B1
Experiment: self-cleavage, relative activity (ratio to wild type); higher = more cleavage; in vitro, sequencing; the parent is a self-cleaving ribozyme

Variant | self-cleavage
A33C A66U | 1.52
A33G A69G | 0.28
G31A A52U | 1.32
A30U A64G | 1.56
A33U A51U | 0.89
A30G G137A | 1.06
A30G G137U | 0.71
A30U A55G | 1.55
A33C A47G | 1.05
G31A U38C | 1.93
A33U A111G | 0.03
A30C A68G | 0.67
A33U A82G | 0.88
G31C U133C | 1.95
C32G | 1.25
C32U | 1.28
C32A | 1.2
A33G U133C | 0.88
A30G C45U | 1.06
A30G A111G | 0.05
A30G A89G | 0.71
A30G A89C | 0.8
A30G A89U | 1.09
A33G C76U | 0.12

Variant | self-cleavage
A33G U57C | 0.64
A30C A33G | 1.9
A30G C101A | 0.14
A30G G58A | 0.67
A30U U37C | 0.84
A33G U130A | 1.1
A33G U130C | 0.66
G31A G137U | 1.5
A30G A68G | 1.49
C32U A95G | 2.11
C32G A54U | 1.14
A30G U37G | 1.08
A30U A68U | 1.5
A33U A98G | 1.53
G29U A63G | 2.9
A33G A54U | 1.04
A30G U87C | 1.39
A30G A116G | 0.66
A30G A116C | 0.03
A33G U87C | 0.7
A33G U87A | 0.66
A33G U103C | 0.4
A33G U103A | 0.46
A33G A125G | 0.23

Variant | self-cleavage
A33G A125U | 1.17
A33C G74A | 0.38
C32A A63G | 1.46
A33G U72C | 0.12
A33G U72A | 0.12
A33G U72G | 0.14
A33G U39C | 0.8
A33G U39A | 1.23
A30C | 1.6
A30U | 1.24
A30G | 1.28
A30C A116G | 0.89
A30U G93A | 1.63
C32U U102C | 1.73
A33C A67U | 1.28
A33G A117G | 0.7
A33G A117U | 0.74
G29A U72C | 0.27
A30G A82G | 0.6
A30G A82U | 0.25
A30G A114C | 0.07
G29U U102A | 1
A30G A117U | 0.99
A30G A117C | 0.61

Variant | self-cleavage
A30U A51G | 1.55
A33U A59G | 1.28
A30G A54G | 1.21
A30U C113U | 0.04
A33G A92U | 0.42
A30G G75C | 0.19
A33G A126G | 0.7
A30G C105U | 0.17
C32U U124A | 0.41
A30U A59G | 0.34
A30G C40A | 1.42
A30U A114U | 0.11
A30G A51G | 1.07
A33C A140U | 1.4
A30U A110G | 0.1
G29C U127C | 0.39
A33G A91G | 0.29
A30G C112U | 0.04
A30G C112A | 0.02
A30G A47U | 1.27
A30U A118G | 1.45
A30G A56G | 1.27
A30G A56U | 1.02
G29A U39A | 1.8

Variant | self-cleavage
C32U A55G | 0.65
C32U A111G | 0.01
A33G A82U | 0.1
A33G A82G | 0.35
A30G C109A | 0.23
A33G A56C | 0.41
A30G U57C | 1.29
A30G C34A | 0.85
G31A A55G | 1.7
A30U U70C | 0.71
A30U U70A | 1.71
A33G G106A | 0.04
A30U U127C | 0.71
A33G A86U | 0.87
A33G U102G | 0.47
A33G G138A | 0.65
A33C U124G | 1.02
A30G U39C | 1.05
A30G U39A | 0.39
G31A A60G | 0.77
A30G A55G | 1.14
G31U U102A | 2.03
C32U A86G | 1.82
G31U A54G | 1.34

Variant | self-cleavage
A30U U38C | 1.69
A33G A89U | 1.27
A33G A89G | 0.84
C32A A110U | 2.04
C32U A94G | 1.5
C32A U132C | 0.85
A30G A52G | 1.13
A33G U131C | 0.63
A30G A86G | 1.41
A30G A86U | 1.37
C32A C128A | 0.81
A33G C81U | 0.17
G29A A59G | 1.26
A30U G138A | 2.22
A30U A36U | 1.67
G29A U139C | 2.53
G29A U139G | 0.86
G31U A36G | 2.23
A33G A64U | 0.99
A33G A64C | 1.17
A33U A62G | 1.52
A33U A62U | 2.26
A33U A96G | 0.16
A33C A69G | 1.71

Variant | self-cleavage
A30U U120C | 1.29
G29A U97C | 1.22
A33G A118U | 0.47
A33G C34A | 1.19
A30G U139A | 1.46
A30G U139C | 1.03
G29C C42U | 1.06
G29C A96G | 1.67
G31A U57C | 1.2
C32A A56G | 0.28
G29A A54G | 1.96
A30U A116G | 1.27
A30G A60U | 0.79
A30U A91G | 1.35
A30U G115A | 0.22
C32U A51G | 1.88
A30U U43C | 1.88
A30U A54C | 1.77
A33G A129C | 0.63
A30G G44A | 1.15
A30G A94G | 1.29
A33U A68G | 1.28
A30C U103G | 0.01
